Reference: article PMC3395577

Substrate: O=[N+]([O-])c1ccc(O[C@@H]2O[C@H](CO)[C@@H](O)[C@H](O)[C@H]2O)cc1
Assay: purified protein
Details: 50 mM imidazole-potassium buffer pH 6.4, 70°C, Table 2 prints 0.63

B1: BGL (β-glucosidase, Tthe_1813) (Thermoanaerobacterium thermosaccharolyticum DSM 571) (protein)
chain: MSDFNKDFLFGVATASYQVEGAYNEDGRSMSIWDTFCRQDGKVYKGHNGDVACDHYHLYKDDVKMMKDLGIEAYRFSIAWPRIFPEKGHYNPKGIDFYKRLTDELLKNDIKPFVTIYHWDLPQWADDLGGWLNREVVDWFGEYVSKLFNELGGYIRNWITLNEPWCSSFLSYFIGEHAPGHKDLGEAVLVSHNLLLAHGKAVEIFRDINSSDSKIGITLNLNEVFPATDSPEDKAAARIADGFQNRWFLDPIFKGEYPKDMLELFGKYAKTDFITDGDLKRISQKLDFLGVNYYTRAVVKKGNDGILNAEQIDVDNEKTEMGWEVYPESLYNILMRLKNEYTFDLPLYITENGAAYKDVVSDDGHVHDEKRVEFLKKHFKQAKRFIDDGGNLRGYFVWSLMDNFEWAHGYSKRFGIVYVDYETEKRILKDSALWYKNLISTRTI
For B1, the Km was 620 µM.
